Test results published in patent US11702475B2, “Cysteine engineered fibronectin type III domain binding molecules” (Janssen Biotech, Inc., priority 2013, dated 2023).

Assays:
[1] = target: T1, EGFR on A431 cells (Homo sapiens, UniProt P00533); assay: A431 cell binding assay; conditions: 1 hour room temperature
T1 construct: A431 cells (American Type Culture Collection, cat. #CRL-1555) over-express EGFR; host or cells: A431
Protocol: To assess the ability of different FN3 domains to bind EGFR in a more physiological context, their ability to bind A431 cells was measured. A431 cells (American Type Culture Collection, cat. #CRL-1555) over-express EGFR with ˜2×10^6 receptors per cell. Cells were plated at 5,000/well in opaque black 96-well plates and allowed to attach overnight at 37° C., in a humidified 5% CO2 atmosphere. FN3 domain-expressing bacterial lysates were diluted 1,000-fold into FACS stain buffer (Becton Dickinson) and incubated for 1 hour at room temperature in triplicate plates. Lysates were removed and cells were washed 3 times with 150 μL/well of FACS stain buffer. Cells were incubated with 50 μL/well of anti-penta His-Alexa488 antibody conjugate (Qiagen) diluted 1:100 in FACS stain buffer for 20 minutes at room temperature. Cells were washed 3 times with 150 μL/well of FACS stain buffer, after which wells were filled with 100 μL of FACS stain buffer and read for fluorescence at 488 nm using an Acumen eX3 reader. […]
A431 cells were plated at 5,000/well in opaque black 96-well plates and allowed to attach overnight at 37° C., in a humidified 5% CO2 atmosphere. […] Cells were washed 3 times with 150 μL/well of FACS stain buffer, after which wells were filled with 100 μL of FACS stain buffer and read for fluorescence at 488 nm using an Acumen eX3 reader. […]

[2] = target: EGFR (Homo sapiens, UniProt P00533); assay: Inhibition of EGF-stimulated EGFR phosphorylation in A431 cells (phospho-EGFR assay); assay type: cell-based; conditions: 50 ng/mL EGF, EGFR Tyr1173
Protocol: Purified EGFR-binding FN3 domains were tested for their ability to inhibit EGF-stimulated phosphorylation of EGFR in A431 cells at a single concentration. EGFR phosphorylation was monitored using the EGFR phospho(Tyr1173) kit (Meso Scale Discovery). Cells were plated at 20,000/well in clear 96-well tissue culture-treated plates (Nunc) in 100 μL/well of RPMI medium (Gibco) containing GlutaMAX™ with 10% fetal bovine serum (FBS) (Gibco) and allowed to attach overnight at 37° C. in a humidified 5% CO2 atmosphere. Culture medium was removed completely and cells were starved overnight in 100 μL/well of medium containing no FBS at 37° C. in a humidified 5% CO2 atmosphere. […] Signals were detected by addition of 150 μL/well of Read Buffer (Meso Scale Discovery) and reading on a SECTOR® Imager 6000 instrument (Meso Scale Discovery) using manufacturer-installed assay-specific default settings. Percent inhibition of the EGF-stimulated positive control signal was calculated for each EGFR-binding FN3 domain.
Data were plotted as electrochemiluminescence signal against the logarithm of the FN3 domain molar concentration and IC50 values were determined by fitting data to a sigmoidal dose response with variable slope using GraphPad Prism 4 (GraphPad Software). […]

EC50 [1]: 8.6 nM | IC50 [2]: 295 nM
B1: P54AR4-47: EGFR-binding FN3 domain, SEQ ID NO: 20 (protein)
chain: LPAPKNLVVSEVTEDSLRLSWGYNGDHFDSFLIQYQESEKVGEAINLTVPGSERSYDLTGLKPGTEYTVSIYGVHNVYKDTNMRGLPLSAEFTT
modifications: EGFR binding FN3 domain
